{"source": "paper PMC2132615", "about": "(The Journal of Cell Biology, 1997)", "proteins": {"B1": {"name": "CBF3 p110 (p110^NDC10) (natural protein)", "chain": "MRSSILFLLKLMKIMDVQQQQEAMSSEDRFQELVDSLKPRTAHQYKTYYTKYIQWCQLNQIIPTPEDNSVNSVPYKDLPISAELIHWFLLDTLITDDKPGEKREETEDLDEEEENSFKIATLKKIIGSLNFLSKLCKVHENPNANIDTKYLESVTKLHTHWIDSQKAITTNETNNTNTQVLCPPLLKVSLNLWNPETNHLSEKFFKTCSEKLRFLVDFQLRSYLNLSFEERSKIRFGSLKLGKRDRDAIIYHKVTHSAEKKDTPGHHQLLALLPQDCPFICPQTTLAAYLYLRFYGIPSVSKGDGFPNLNADENGSLLQDIPILRGKSLTTYPREETFSNYYTTVFRYCHLPYKRREYFNKCNLVYPTWDEDTFRTFFNEENHGNWLEQPEAFAFPDKIPFDFKKIMNFKSPYTSYSTNAKKDPFPPPKDLLVQIFPEIDEYKRHDYEGLSQNSRDFLDLMEVLRERFLSNLPWIYKFFPNHDIFQDPIFGNSDFQSYFNDKTIHSKGSPILSFDILPGFNKIYKNKTNFYSLLIERPSQLTFASSHNPDTHPTQKQESEGPLQMSQLDTTQLNELLKQQSFEYVQFQTLSNFQILLSVFNKIFEKLEMKKSSRGYILHQLNLFKITLDERIKKSKIDDADKFIRDNQPIKKEENIVNEDGPNTSRRTKRPKQIRLLSIADSSDESSTEDSNVFKKDGESIEDGAYGENEDENDSEMQEQLKSMINELINSKISTFLRDQMDQFELKINALLDKILEEKVTRIIEQKLGSHTGKFSTLKRPQLYMTEEHNVGFDMEVPKKLRTSGKYAETVKDNDDHQAMSTTASPSPEQDQEAKSYTDEQEFMLDKSIDSIEGIILEWFTPNAKYANQCVHSMNKSGNKSWRANCEALYKERKSIVEFYIYLVNHESLDRYKAVDICEKLRDQNEGSFSRLAKFLRKWRHDHQNSFDGLLVYLSN"}}, "target": "the molecule itself"}
{"protein": "B1", "values": [{"measurement": "stoichiometry N", "value": 2}]}
